From publication PMC5124861, “Transition steps in peroxide reduction and a molecular switch for peroxide robustness of prokaryotic peroxiredoxins” (Scientific Reports, 2016)

Molecular target: the molecule itself
Experiment: crystal structure; oxidized EcAhpC_(1-186)-YFSKHN; hanging-drop vapour diffusion, 1.6 M ammonium sulfate, 100 mM MES pH 6.5, 5% dioxane, 4.5 mg/ml protein, 291 K; 2.7 Å; decamer in the asymmetric unit

B1: chimeric EcAhpC_(1-186)-YFSKHN (enzyme, E. coli | human)
chain: MSLINTKIKPFKNQAFKNGEFIEITEKDTEGRWSVFFFYPADFTFVCPTELGDVADHYEELQKLGVDVYAVSTDTHFTHKAWHSSSETIAKIKYAMIGDPTGALTRNFDNMREDEGLADRATFVVDPQGIIQAIEVTAEGIGRDASDLLRKIKAAQYVASHPGEVCPAKWKEGEATLAPSLDLVGKYFSKHN
notes: C-terminal YFSKHN segment (helix with the YF motif) of human Prx2; Decamer (alpha2)5 in the crystal; In the oxidized form an intermolecular disulphide joins C47 and C166' of the two subunits of each dimer; the reduced form came from soaking oxidized crystals in 1 mM TCEP; The forward primer (NcoI, ATG GCA ATG TCC) may add residues before M1; also called chimeric Prx; Ox; copies: 10
stoichiometry N: 10
